Measured values taken from PMC2148140.

Molecular target: human Erd2p (KDEL receptor) (human) (UniProt P24390)
Assay: radioligand binding

UniProt P24390, sequence (P24390 whole entry): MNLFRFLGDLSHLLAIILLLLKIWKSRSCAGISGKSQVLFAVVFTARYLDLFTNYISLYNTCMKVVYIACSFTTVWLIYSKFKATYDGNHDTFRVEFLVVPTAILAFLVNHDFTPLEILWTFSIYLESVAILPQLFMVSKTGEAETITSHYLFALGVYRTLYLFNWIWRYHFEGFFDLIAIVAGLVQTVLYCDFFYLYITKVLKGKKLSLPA

cholera toxin A subunit (wild-type CTX-A), 125I-labelled (natural protein)
binding at pH 6 as percent of the binding at pH 5: 60%
